One may read the Kd as the equilibrium constant for the complex coming apart.

No end group written: not given here. fluorescein = fluorescein label

The test deals with T1, Escherichia coli single-stranded DNA binding (SSB) protein, wild type (E. coli, UniProt P0AGE0 1-178).
T1 construct: E. coli SSB, wild type; OB domain aa 1-112, IDL aa 113-177 with the CTP aa 169-177; homotetramer of 19-kDa subunits; Construct as described in Harami et al. (2020); also called SSB-WT; WT; source: E. coli ER2566, purified (Polymin P, ammonium sulfate, heparin, MonoQ)
The test is described as follows: fluorescence polarisation; 15 nM flu-CTP titrated with SSB or SSBdC; standard LLPS buffer (20 mM Tris-OAc pH 7.5, 50 mM KGlu, 5 mM Mg(OAc)2), no PEG; 25°C; quadratic binding equation. To be noted: both partners purified. In general terms: In fluorescence polarisation assays a small probe gives low polarisation when free and higher when bound to something large.

T1 sequence (P0AGE0 whole entry, the tested form may be a part): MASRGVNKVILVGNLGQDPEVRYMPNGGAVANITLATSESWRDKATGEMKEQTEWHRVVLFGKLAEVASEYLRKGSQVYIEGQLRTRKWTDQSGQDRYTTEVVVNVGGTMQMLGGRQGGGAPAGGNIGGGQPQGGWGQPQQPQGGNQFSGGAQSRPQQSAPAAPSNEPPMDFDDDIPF

B1: fluorescein-labeled SSB C-terminal peptide (peptide)
peptide: fluorescein-MDFDDDIPF
notes: also called flu-CTP; labeled C-terminal peptide
For B1, the Kd is > 100 µM.

For the origin of these results see publication PMC11947617, “Fine‐tuned interactions between globular and disordered regions of single‐stranded DNA binding (SSB) protein are required for dynamic condensation under physiological conditions” (Protein Science : A Publication of the Protein Society, 2025).
